The values that follow come from article PMC6748273.

A word on the kcat: it is the number of substrate molecules converted per active site and unit of time at saturation. For orientation: kcat/Km means the second-order rate constant that governs catalysis at low substrate concentration.

Common to all, as to assay: purified protein
Holding throughout (details): 1.2 mM L-Trp, 25 mM Tris, 5 mM MgCl2, 50 mM KCl, pH 7.5, 35 °C

Substrate in data set [1]: O=P(O)(O)OP(=O)(O)OCc1ccc(Br)cc1
Substrate in data set [2]: CC=CCOP(=O)(O)OP(=O)(O)O
Substrate in data set [3]: O=P(O)(O)OP(=O)(O)OCc1ccc(Cl)cc1
Substrate in data set [4]: CC(C)=CCOP(=O)(O)OP(=O)(O)O
Substrate in data set [5]: COc1ccccc1COP(=O)(O)OP(=O)(O)O
Substrate in data set [6]: C/C(Br)=C/COP(=O)(O)OP(=O)(O)O
Substrate in data set [7]: COc1cccc(COP(=O)(O)OP(=O)(O)O)c1
Substrate in data set [8]: CCC(=CCOP(=O)(O)OP(=O)(O)O)CC
Substrate in data set [9]: O=P(O)(O)OP(=O)(O)OCc1ccc(F)cc1
Substrate in data set [10]: O=P(O)(O)OP(=O)(O)OCc1ccccc1
Substrate in data set [11]: O=P(O)(O)OP(=O)(O)OCC=C1CCCC1

B1: FgaPT2 (Aspergillus fumigatus Af293) (protein)
chain: MKAANASSAEAYRVLSRAFRFDNEDQKLWWHSTAPMFAKMLETANYTTPCQYQYLITYKECVIPSLGCYPTNSAPRWLSILTRYGTPFELSLNCSNSIVRYTFEPINQHTGTDKDPFNTHAIWESLQHLLPLEKSIDLEWFRHFKHDLTLNSEESAFLAHNDRLVGGTIRTQNKLALDLKDGRFALKTYIYPALKAVVTGKTIHELVFGSVRRLAVREPRILPPLNMLEEYIRSRGSKSTASPRLVSCDLTSPAKSRIKIYLLEQMVSLEAMEDLWTLGGRRRDASTLEGLSLVRELWDLIQLSPGLKSYPAPYLPLGVIPDERLPLMANFTLHQNDPVPEPQVYFTTFGMNDMAVADALTTFFERRGWSEMARTYETTLKSYYPHADHDKLNYLHAYISFSYRDRTPYLSVYLQSFETGDWAVANLSESKVKCQDAACQPTSLPPDLSKTGVYYSGLH
Consider B1, for which the turnover number (kcat) in data set [1] is 0.00223 ± 5e-05 s⁻¹; in [2], 0.0095 ± 0.000333 s⁻¹; in [3], 0.00327 ± 6.67e-05 s⁻¹; in [4], 0.833 ± 0.0167 s⁻¹; in [5], 0.0322 ± 0.000833 s⁻¹; in data set [6], 0.00783 ± 0.000167 s⁻¹. For the same protein, the kcat worked out at 0.00283 ± 8.33e-05 s⁻¹ in data set [7]; 0.108 ± 0.00167 s⁻¹ in data set [8]; 0.0046 ± 6.67e-05 s⁻¹ in data set [9]; 0.0227 ± 0.000333 s⁻¹ in [10]; 0.084 ± 0.003 s⁻¹ in [11]. Further, the kcat/Km was determined as 7 ± 0.667 M⁻¹ s⁻¹ in [1]; 65 ± 6.67 M⁻¹ s⁻¹ in data set [2]; 7.67 ± 0.5 M⁻¹ s⁻¹ in data set [3]; 5820 ± 467 M⁻¹ s⁻¹ in data set [4]; 56.7 ± 3.33 M⁻¹ s⁻¹ in data set [5]; 21.7 ± 1.67 M⁻¹ s⁻¹ in [6]. Moreover, the kcat/Km was found to be 3.83 ± 0.333 M⁻¹ s⁻¹ in data set [7]; 283 ± 16.7 M⁻¹ s⁻¹ in data set [8]; 11.5 ± 0.667 M⁻¹ s⁻¹ in [9]; 103 ± 5 M⁻¹ s⁻¹ in data set [10]; 267 ± 33.3 M⁻¹ s⁻¹ in [11].
